Assay results from publication doi:10.1101/2024.08.12.607668 (bioRxiv, 2024).
Values joined by “and” are separate entries in the source; they are usually repeats but may differ in a detail not shown here. Identical values can stand only once. Like-named read-outs stand apart in the source and are kept apart here. One block for each molecule: values may come before it.

B4: AbrB from B. subtilis 168, full-length, His6-tagged (natural protein, UniProt P08874 1-96, looked up)
chain: MFMKSTGIVRKVDELGRVVIPIELRRTLGIAEKDALEIYVDDEKIILKKYKPNMTCQVTGEVSDDNLKLAGGKLVLSKEGAEQIISEIQNQLQNLK

Columns and labels:
[1] = biological target: AbrB from B. amyloliquefaciens FZB45, full-length, His6-tagged (B. amyloliquefaciens FZB45); assay: SEC
full-length AbrB = assay: SPR
SEC = biological target: the molecule itself; assay: SEC
[2] = biological target: AbrB from B. amyloliquefaciens FZB45, full-length, His6-tagged (B. amyloliquefaciens FZB45); assay: SPR
[3] = biological target: AbrB from B. amyloliquefaciens FZB45, full-length, His6-tagged (B. amyloliquefaciens FZB45); assay: SPR; remark: listed apart in the source
[4] = biological target: AbrB from B. amyloliquefaciens FZB45, full-length, His6-tagged (B. amyloliquefaciens FZB45); assay: SPR; remark: listed apart in the source
[5] = biological target: AbrB from B. amyloliquefaciens FZB45, full-length, His6-tagged (B. amyloliquefaciens FZB45); assay: native gel or EMSA
[6] = biological target: T1, Truncated AbrB, N-terminal DNA-binding domain (AbrBN) from B. subtilis 168, His6-tagged (B. subtilis 168); assay: SPR
T1 sequence (P08874 whole entry, looked up): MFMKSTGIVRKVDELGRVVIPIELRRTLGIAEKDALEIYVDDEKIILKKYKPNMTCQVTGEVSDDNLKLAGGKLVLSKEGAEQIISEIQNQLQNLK

[7] = biological target: B4; assay: SPR
[8] = biological target: B4; assay: native gel or EMSA
SAXS = biological target: the molecule itself; assay: SAXS

stoichiometry N [1]: 4
Molecule: AbrB from B. amyloliquefaciens FZB45, full-length, His6-tagged (natural protein)

ka1 (two-state reaction model, first reaction) (full-length AbrB): 132000 M⁻¹ s⁻¹ and 158000 M⁻¹ s⁻¹ | kd1 (two-state reaction model, first reaction) (full-length AbrB): 0.0955 s⁻¹ and 0.157 s⁻¹
Molecule: AbbA

Kd [2]: 1140 nM and 1240 nM | KD1 (two-state reaction model, first reaction) [3]: 791 nM | Kd [3]: 68.9 nM | Kd [4]: 31.4 nM | stoichiometry N (AbbA dimers per AbrB tetramer) [5]: 2
B1: AbbA from B. amyloliquefaciens FZB45 as run on analytical FPLC (natural protein, UniProt A0A9P1JGI2 1-63, looked up)
chain: MSLIGERFTEEEQKLLLNILINHEYAIELLTSEINDIEAGSKSVDGTTYKKLVTLYDRFRNEN
stoichiometry N (SEC): 2

Kd [6]: 3700 nM | Kd [7]: 448 nM | stoichiometry N [8]: ~2 AbbA dimers per AbrB tetramer
B2: AbrB antirepressor AbbA from B. subtilis 168, His6-tagged (natural protein, UniProt O31697 1-65, looked up)
chain: MRMSLIGERFTEEEQKLLLNILINHEYAIELLSSEINDIETGTKNVDGTTYKKLVTLYDRFRFEN

B3: AbbA from B. subtilis 168 as run on analytical FPLC (natural protein, UniProt O31697 1-65, looked up)
chain: MRMSLIGERFTEEEQKLLLNILINHEYAIELLSSEINDIETGTKNVDGTTYKKLVTLYDRFRFEN
stoichiometry N (SEC): 2

Molecule: B4
stoichiometry N (SEC): 4

B5: Full-length AbrB as measured by SAXS (natural protein)
chain: MKSTGIVRKVDELGRVVIPIELRRTLGIAEKDALEIYVDDEKIILKKYKPNMTCQVTGEVSDDNLKLAGGKLVLSKEGAEQIISEIQNQLQNLK
stoichiometry N (SAXS): 4
